In data set [1] the target is RNAP core from E. coli (EcoRNAP core) (E. coli) (UniProt P0A8V2).
Data set [2] has the same target. This is another data set of the same source.
Data set [3] addresses full-length σ^70 subunit of E. coli RNA polymerase (E. coli) (UniProt P00579).
The target in data set [4] is RNA polymerase core (EcoRNAP) (Escherichia coli, UniProt P0A7Z4;P0A8V2;P0A8T7;P0A800 1-329;1-1342;1-1407;2-91). Put plainly: pull-down (Ni-agarose RNA retention); 1 M NaCl wash; 40 mM HEPES pH 7.9, 5 mM MgCl2, 50 mM NaCl, 5% glycerol; binding to Ni-NTA at 18 C, washes with 250 mM NaCl (1 M for core controls), labeling at 22 C. To be noted: protein: recombinant; tags: C-terminal 6xHis on rpoC; chain copies: 2;1;1;1; 9-bp downstream duplex, 10-nt 3' template overhang; 13-nt RNA with unpaired 5' end.

Chain of RNAP core from E. coli (EcoRNAP core) (E. coli) (P0A8V2 whole entry, looked up): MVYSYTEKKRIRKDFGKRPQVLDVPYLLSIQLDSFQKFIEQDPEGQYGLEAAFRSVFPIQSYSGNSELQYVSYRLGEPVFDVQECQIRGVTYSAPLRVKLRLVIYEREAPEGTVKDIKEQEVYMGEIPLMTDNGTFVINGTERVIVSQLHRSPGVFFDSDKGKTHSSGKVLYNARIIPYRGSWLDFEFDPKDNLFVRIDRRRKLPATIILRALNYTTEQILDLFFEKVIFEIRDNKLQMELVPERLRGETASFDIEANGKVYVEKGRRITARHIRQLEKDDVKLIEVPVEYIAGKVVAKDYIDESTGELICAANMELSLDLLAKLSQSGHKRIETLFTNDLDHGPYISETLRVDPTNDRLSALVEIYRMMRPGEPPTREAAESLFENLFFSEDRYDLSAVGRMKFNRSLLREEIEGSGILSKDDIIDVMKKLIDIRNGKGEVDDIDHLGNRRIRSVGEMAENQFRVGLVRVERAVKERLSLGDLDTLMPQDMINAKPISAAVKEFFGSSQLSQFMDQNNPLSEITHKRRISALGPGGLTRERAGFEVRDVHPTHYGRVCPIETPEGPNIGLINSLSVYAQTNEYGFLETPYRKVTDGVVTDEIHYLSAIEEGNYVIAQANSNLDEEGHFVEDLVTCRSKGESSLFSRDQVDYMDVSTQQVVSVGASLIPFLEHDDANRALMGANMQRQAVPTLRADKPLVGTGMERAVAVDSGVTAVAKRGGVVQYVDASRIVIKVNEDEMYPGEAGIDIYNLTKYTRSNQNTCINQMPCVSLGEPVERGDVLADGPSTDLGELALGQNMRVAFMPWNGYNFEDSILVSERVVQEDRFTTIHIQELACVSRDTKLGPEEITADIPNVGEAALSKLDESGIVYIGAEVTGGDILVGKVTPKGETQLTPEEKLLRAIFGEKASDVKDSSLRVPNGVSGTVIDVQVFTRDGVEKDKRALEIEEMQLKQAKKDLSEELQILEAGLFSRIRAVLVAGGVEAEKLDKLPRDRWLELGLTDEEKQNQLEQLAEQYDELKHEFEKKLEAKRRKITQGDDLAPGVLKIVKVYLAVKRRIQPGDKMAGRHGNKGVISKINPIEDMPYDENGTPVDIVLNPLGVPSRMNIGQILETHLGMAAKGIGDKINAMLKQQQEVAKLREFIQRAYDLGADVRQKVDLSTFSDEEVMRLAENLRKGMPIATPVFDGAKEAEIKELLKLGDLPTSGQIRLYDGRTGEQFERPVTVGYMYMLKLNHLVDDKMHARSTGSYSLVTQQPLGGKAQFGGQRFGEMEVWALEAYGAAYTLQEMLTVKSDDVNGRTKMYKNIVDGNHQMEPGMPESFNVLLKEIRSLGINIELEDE
Chain of full-length σ^70 subunit of E. coli RNA polymerase (E. coli) (P00579 whole entry): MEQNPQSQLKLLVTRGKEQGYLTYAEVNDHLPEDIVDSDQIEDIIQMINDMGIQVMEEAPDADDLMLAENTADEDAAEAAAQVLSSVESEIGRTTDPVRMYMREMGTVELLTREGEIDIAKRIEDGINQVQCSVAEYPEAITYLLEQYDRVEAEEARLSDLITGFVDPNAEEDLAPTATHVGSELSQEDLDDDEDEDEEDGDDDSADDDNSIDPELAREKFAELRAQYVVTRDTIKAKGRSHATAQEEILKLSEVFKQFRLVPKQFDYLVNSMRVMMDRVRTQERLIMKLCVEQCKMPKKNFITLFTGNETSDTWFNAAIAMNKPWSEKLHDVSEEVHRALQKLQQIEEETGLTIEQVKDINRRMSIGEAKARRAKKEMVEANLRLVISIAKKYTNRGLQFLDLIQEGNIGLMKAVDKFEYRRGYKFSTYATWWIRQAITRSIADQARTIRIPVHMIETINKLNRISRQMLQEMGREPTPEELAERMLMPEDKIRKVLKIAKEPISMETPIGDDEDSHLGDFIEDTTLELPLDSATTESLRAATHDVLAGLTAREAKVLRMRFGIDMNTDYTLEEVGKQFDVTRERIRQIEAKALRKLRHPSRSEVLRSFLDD

Regarding “σ_(Δ3–4) fragment of σ^70 (residues 1–448) (from UniProt P00579 1-448) (domain or fragment)”, the translocation efficiency (fraction of 5-nt RNA) in extension of the 2-nt primer GpC on the LDT scaffold in data set [1] was under 50%.
“σ_(Δ4.2) fragment of σ^70 (residues 1–553) (from UniProt P00579 1-553) (domain or fragment)” displayed a translocation efficiency (fraction of 5-nt RNA) in extension of the 2-nt primer GpC on the LDT scaffold in data set [1] of under 50%.
With “full-length σ^70 subunit of E. coli RNA polymerase (from UniProt P00579 1-613) (natural protein)”, in data set [2], the translocation efficiency (fraction of 5-nt RNA) in extension of the 2-nt primer GpC on the LDT scaffold; core alone about 40% turned out to be 95%.
As to “σΔ4 fragment of σ^70 (residues 1–529) (from UniProt P00579 1-529) (domain or fragment)”, the translocation efficiency (fraction of 5-nt RNA) in extension of the 2-nt primer GpC on the LDT scaffold in data set [1] is under 50%.

B1: T4 phage coactivator protein AsiA (natural protein)
chain: MNKNIDTVREIITVASILIKFSREDIVENRANFIAFLNEIGVTHEGRKLNQNSFRKIVSELTQEDKKTLIDEFNEGFEGVYRYLEMYTNK
Regarding B1, in data set [3], the inhibition by 1 μM AsiA of abortive transcription by σ^70-EcoRNAP at the lacUV5 promoter (AsiA used to disrupt the pair σ4.2 of σ^70 and β-FTH of the core) worked out at 85%; the inhibition by 1 μM AsiA of de novo 3-nt RNA synthesis by σ^70-EcoRNAP on the SDT2 scaffold (AsiA used to disrupt the pair σ4.2 of σ^70 and β-FTH of the core) is 50%.

B2: SDT scaffold + pRNA13 (mixed)
RNA: AAUUGUGAGCGGA
DNA 1: TGCAATTGTCATCCGCTCA
DNA 2: ACAATTGCA
With B2, the binding result in data set [4] is given as “binds”.

Source of the values: paper PMC7948647, “Region 4 of the RNA polymerase σ subunit counteracts pausing during initial transcription”.
